This is an account of results in publication doi:10.1101/2023.06.13.544862.

Sequence of JMJD3 JmjC domain labelled for microscale thermophoresis (O15054 1339-1502): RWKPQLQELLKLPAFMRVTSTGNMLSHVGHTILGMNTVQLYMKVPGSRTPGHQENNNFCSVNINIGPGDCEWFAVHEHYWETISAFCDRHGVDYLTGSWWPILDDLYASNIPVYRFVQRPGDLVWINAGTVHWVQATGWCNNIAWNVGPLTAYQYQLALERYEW

The target in the first assay is EED labelled for microscale thermophoresis (human) (UniProt O75530). As to the kind of experiment: MST.
Sequence of EED labelled for microscale thermophoresis (human) (O75530 whole entry, the tested form may be a part): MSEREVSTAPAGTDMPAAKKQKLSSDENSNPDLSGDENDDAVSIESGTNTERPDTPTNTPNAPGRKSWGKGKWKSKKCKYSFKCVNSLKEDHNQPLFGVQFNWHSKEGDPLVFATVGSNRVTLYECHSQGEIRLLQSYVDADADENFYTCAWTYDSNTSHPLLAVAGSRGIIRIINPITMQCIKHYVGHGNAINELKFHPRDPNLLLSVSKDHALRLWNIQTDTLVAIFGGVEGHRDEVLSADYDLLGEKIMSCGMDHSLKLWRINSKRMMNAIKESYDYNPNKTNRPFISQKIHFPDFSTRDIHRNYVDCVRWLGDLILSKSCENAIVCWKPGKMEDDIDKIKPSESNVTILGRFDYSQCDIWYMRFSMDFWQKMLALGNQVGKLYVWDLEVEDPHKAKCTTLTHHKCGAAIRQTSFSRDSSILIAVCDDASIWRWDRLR
As to H3K27me3 peptide, the Kd came to 0.95 µM. On the same count and under the same terms, to “NOP16 aa 25-32 peptide, di-methylated K29 (from UniProt Q9Y3C1 25-32)” belongs 131 µM; to “NOP16 aa 25-32 peptide, mono-methylated K29 (from UniProt Q9Y3C1 25-32)”, 100 µM; to “NOP16 aa 25-32 peptide, tri-methylated K29 (from UniProt Q9Y3C1 25-32)”, 1.21 µM. The same measure, in the same setting: as for “NOP16 aa 25-32 peptide, unmethylated K29 (from UniProt Q9Y3C1 25-32)”, the figure is 11.6 µM.

The next assay addresses JMJD3 JmjC domain labelled for microscale thermophoresis (UniProt O15054). As to the kind of experiment: MST.
Take H3K27me3 peptide: the Kd worked out at 8.59 µM.

In general, Kd refers to a measure of binding affinity in units of concentration.
